Results on two substances are retold here after paper PMC7487859.

The subject of data set [1] is PDGFRbeta (mouse, on 4T1 cells) (Mus musculus). Nature of the data set: streptavidin-biotin cell binding assay. The conditions noted are these: apparent Kd on intact 4T1 cells; Scr background subtracted; 2'-fluoro pyrimidines; 4T1 cells (2x10^4/well), 10-500 nM aptamer, 10 min, room temperature, BlockAid blocking solution with 1 mg/ml yeast tRNA and 1 mg/ml salmon sperm DNA; salt and ….

Data set [2] has as its system PDGFRbeta (human, on MDA-MB-231 cells) (Homo sapiens). Nature of the data set: cell binding assay. The conditions noted are these: intact MDA-MB-231 cells; 2'-fluoro pyrimidines; 10-500 nM aptamer, 10 min, room temperature, BlockAid blocking solution with 1 mg/ml yeast tRNA and 1 mg/ml salmon sperm DNA; salt; cited from earlier work.

As for Gint4.T, the Kd in data set [1] worked out at 76.8 nM.
Consider Gint4.T (as in cited ref 31), for which, in data set [2], the Kd was 57.5 nM.
